Source: patent US20160354479A1 (ESBATECH AN ALCON BIOMEDICAL RESEARCH UNIT, published 2016)
Values belong to the binder of their own block, whether it stands above or below them.

Experiments:
[1] = biological target: T1, recombinant human VEGF165 (human, UniProt P15692-4 27-191); assay: SPR, BIAcore T100, hVEGF165 immobilized, 1:1 fit (FIG. 7B)
T1 construct: Amine-coupled to a CM4 sensor chip; also called hVEGF165
Excerpt: (§1) For binding affinity measurements, surface Plasmon resonance measurements with BIAcore™-T100 were employed. In these experiments, purified Escherichia coli-expressed recombinant human VEGF₁₆₅ (PeproTech EC Ltd) was used. Carboxymethylated dextran biosensor chips (CM4, GE Healthcare) were activated with N-ethyl-N′-(3-dimethylaminopropyl)carbodiimide hydrochloride and N-hydroxysuccinimide according to the supplier's instructions. Human VEGF₁₆₅ was coupled to 1 of the 4 different flow cells on a CM4 sensor chip using a standard amine-coupling procedure. The range of responses obtained with the immobilized hVEGF₁₆₅ molecule after coupling and blocking was approximately 120-140 response units (RU). The 4th flow cell of each chip was treated similarly except no proteins were immobilized prior to blocking, and the flow cell was used as in-line reference. Various concentrations of anti-VEGF scFvs (20 nM, 10 nM, 5 nM, 2.5 nM, 1.25 nM, 0.63 nM, 0.31 nM and 0.16 nM) in HBS-EP buffer (0.01 M HEPES, pH 7.4, 0.15 M NaCl, 3 mM EDTA, 0.005% surfactant P20) were injected into the flow cells at a flow rate of 30 μl/min for 5 min. […] The apparent dissociation rate constant (kd), the apparent association rate constant (kₐ) and the apparent dissociation equilibrium constant (KD) were calculated using one-to-one Langmuir binding model with BlAcore T100 evaluation Software version 1.1.

[2] = biological target: T1, recombinant human VEGF165; assay: SPR, BIAcore T100, hVEGF165 immobilized
Excerpt: as §1

[3] = biological target: T2, Human TNF alpha (human, UniProt P01375 77-233); assay: direct ELISA on coated human TNF alpha, detection with biotinylated rabbit anti-ESBA105 antibody and streptavidin poly-HRP, OD 450 nm
T2 construct: Coated on the ELISA plate
T2 sequence (P01375 77-233 limits assumed): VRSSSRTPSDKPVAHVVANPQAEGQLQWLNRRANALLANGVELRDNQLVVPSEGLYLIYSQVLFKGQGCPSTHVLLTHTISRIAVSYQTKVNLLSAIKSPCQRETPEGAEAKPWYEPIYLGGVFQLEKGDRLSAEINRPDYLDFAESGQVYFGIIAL
Experimental: Binding of ESBA105 and its derivatives was assessed by a direct ELISA. Human TNF alpha (PeproTech EC Ltd) was coated on a 96-well microtitre plate and then blocked using BSA (bovine serum albumin). ESBA105 and ESBA105 derivates were tested at concentrations of 50 nM, 12.5 nM, 3.13 nM, 1.56 nM, 0.78 nM, 0.39 nM, 0.20 nM, 0.10 nM and 0.05 nM. Binding of ESBA105 and its derivatives to human TNF alpha was visualized by the subsequent addition of a biotinylated rabbit polyclonal anti-ESBA105 antibody (AK3A, generated at ESBATech), streptavidin Poly HRP and a chromogenic substrate (POD). The product of this reaction was detected by measurement of the optical densitiy (OD) at […] using a spectrophotometer. Data were analyzed using a 4-parameter logistic curve fit, and EC₅₀ values were calculated from the dose-response curves of the scFvs.

[4] = biological target: T1, recombinant human VEGF165; assay: SPR, BIAcore T100, hVEGF165 immobilized, 1:1 fit (FIG. 7A)
Excerpt: For binding affinity measurements, surface Plasmon resonance measurements with BIAcore™-T100 were employed. In these experiments, purified Escherichia coli-expressed recombinant human VEGF₁₆₅ (PeproTech EC Ltd) was used. Carboxymethylated dextran biosensor chips (CM4, GE Healthcare) were activated with N-ethyl-N′-(3-dimethylaminopropyl)carbodiimide hydrochloride and N-hydroxysuccinimide according to the supplier's instructions. Human VEGF₁₆₅ was coupled to 1 of the 4 different flow cells on a CM4 sensor chip using a standard amine-coupling procedure. The range of responses obtained with the immobilized hVEGF₁₆₅ molecule after coupling and blocking was approximately 120-140 response units (RU). The 4th flow cell of each chip was treated similarly except no proteins were immobilized prior to blocking, and the flow cell was used as in-line reference. Various concentrations of anti-VEGF scFvs (20 nM, 10 nM, 5 nM, 2.5 nM, 1.25 nM, 0.63 nM, 0.31 nM and 0.16 nM) in HBS-EP buffer (0.01 M HEPES, pH 7.4, 0.15 M NaCl, 3 mM EDTA, 0.005% surfactant P20) were injected into the flow cells at a flow rate of 30 μl/min for 5 min. Dissociation of the anti-VEGF scFv from the VEGF on the CM4 chip was allowed to proceed for 10 min at 25° C. Sensorgrams were generated for each anti-VEGF scFv sample after in-line reference cell correction followed by buffer sample subtraction. The apparent dissociation rate constant (kd), the apparent association rate constant (kₐ) and the apparent dissociation equilibrium constant (KD) were calculated using one-to-one Langmuir binding model with BlAcore T100 evaluation Software version 1.1.

T1 sequence (P15692 other isoform, or with tags, fused parts or gaps limits assumed): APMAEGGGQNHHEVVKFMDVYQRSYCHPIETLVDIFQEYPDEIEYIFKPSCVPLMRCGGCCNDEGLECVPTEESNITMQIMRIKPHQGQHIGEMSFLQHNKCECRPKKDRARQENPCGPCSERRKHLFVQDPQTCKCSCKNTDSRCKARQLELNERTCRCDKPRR

B2: ESBA105 (scFv)
scFv: MADIVMTQSPSSLSASVGDRVTLTCTASQSVSNDVVWYQQRPGKAPKLLIYSAFNRYTGVPSRFSGRGYGTDFTLTISSLQPEDVAVYYCQQDYNSPRTFGQGTKLEVKRGGGGSGGGGSGGGGSSGGGSQVQLVQSGAEVKKPGASVKVSCTASGYTFTHYGMNWVRQAPGKGLEWMGWINTYTGEPTYADKFKDRFTFSLETSASTVYMELTSLTSDDTAVYYCARERGDAMDYWGQGTLVTVSS
notes: Untreated scFv (VL-linker-VH), made in E. coli; also called ESBA105 Normal linker; naked ESBA105
- EC50 (read off the curve) [3]: ~1000 pM

B3: ESBA105-SS-linker (scFv)
scFv: MADIVMTQSPSSLSASVGDRVTLTCTASQSVSNDVVWYQQRPGKAPKLLIYSAFNRYTGVPSRFSGRGYGTDFTLTISSLQPEDVAVYYCQQDYNSPRTFGQGTKLEVKRGGGGSGGGGSCGGGSGGGCGGGGSGGGGSQVQLVQSGAEVKKPGASVKVSCTASGYTFTHYGMNWVRQAPGKGLEWMGWINTYTGEPTYADKFKDRFTFSLETSASTVYMELTSLTSDDTAVYYCARERGDAMDYWGQGTLVTVSS
notes: un-pegylated
- EC50 (read off the curve) [3]: ~1000 pM

Continued, values first:

- koff [1]: 5.03e-05 s⁻¹
- kon [1]: 1.13e+06 M⁻¹ s⁻¹
- Kd [2]: 44.4 pM
B1: ESBA903 SS Pep1 linker (scFv)
scFv: MEIVMTQSPSTLSASVGDRVIITCQASEIIHSWLAWYQQKPGKAPKLLIYLASTLASGVPSRFSGSGSGAEFTLTISSLQPDDFATYYCQNVYLASTNGANFGQGTKLTVLGGGGGSGGGGSCGAHWQFNALTVRCGGGGSGGGGSEVQLVESGGGLVQPGGSLRLSCTASGFSLTDYYYMTWVRQAPGKGLEWVGFIDPDDDPYYATWAKGRFTISRDTSKNTVYLQMNSLRAEDTAVYYCAGGDHNSGWGLDIWGQGTLVTVSS
notes: also called ESBA903-Pep1

- Kd [4]: 56.1 pM
- koff [4]: 4.31e-05 s⁻¹
- kon [4]: 768000 M⁻¹ s⁻¹
B4: ESBA903 (scFv)
scFv: MEIVMTQSPSTLSASVGDRVIITCQASEIIHSWLAWYQQKPGKAPKLLIYLASTLASGVPSRFSGSGSGAEFTLTISSLQPDDFATYYCQNVYLASTNGANFGQGTKLTVLGGGGGSGGGGSGGGGSGGGGSEVQLVESGGGLVQPGGSLRLSCTASGFSLTDYYYMTWVRQAPGKGLEWVGFIDPDDDPYYATWAKGRFTISRDTSKNTVYLQMNSLRAEDTAVYYCAGGDHNSGWGLDIWGQGTLVTVSS
notes: Anti-VEGF scFv; also called ESBA903 Normal linker; unmodified ESBA903
